Test results: publication PMC10968383 (Bioengineering, 2024)
Where a chain is given by its changes, count along the chain named.

B1: HAb 6b (antibody, V domains shown)
VH: EVQLVQSGAEVKKPGATVKMSCKASGYTFTDYYMKWVKQAPGKGLEWIGDINPNNGDTFYNEKFQGRATLTVDKSTNTAYMELSSLRSEDTAVYYCAKPGRTYWGQGTLVTVS
VL: DIVLTQSPDSLAVSLGERVTMSCKSSQSLLDSGNQKNYLVWYQQKPGQPPKLLIYGASTRESGVPDRFSGSGSGTDFTLTISSVQAEDVAVYYCQNDHSYPLTFGAGTKLELK
B2: Clone 6 (antibody, V domains shown)
VH: EVQLQQSGPELVKPGASVKMSCKASGYTFTDYYMKWVKQSHGKSLEWIGDINPNNGDTFYNQKFKGKATLTVDKSSNTAYMQLNSLTSEDSAVYYCAKPGRTYWGQGTLVTVS
VL: B1 VL with D9S, A12S, L15A, R18K, S69T, A86P, V89L
notes: also called murine anti-PrPc antibody Clone 6; full-length Clone 6 antibody; source: 293F cells, purified with protein A column
B3: 4AA-m (antibody, V domains shown)
VH: EVQLVQSGAEVKKPGDTVKMSCKASGYTFTDYYMKWVKQAPGKAPGKSLEWIGDINPNNGDTFYNQKFQGRATLTVDKSSNTAYMELSSLRSEDTAVYYCVKPGRTYWGQGTLVTVS
VL: B1 VL with S69T
notes: also called recombinant 4AA-m; source: 293F cells, purified with protein A column (said of the antibodies in general)
B4: 4AA (antibody, V domains shown)
VH: B3 VH
VL: B1 VL with S69T
notes: IgG1
B5: HAb 6c (antibody, V domains shown)
VH: B1 VH with M20I, K38Q, I48M, D50L, I51V, A68V, L70I, K98T
VL: B1 VL with V19A, M21I, V84L
B6: HAb 6 (antibody, V domains shown)
VH: B1 VH with G44S, E62Q, T76S
VL: B1 VL with S69T
notes: IgG1; also called humanized antibody HAb 6; wild-type antibody; source: 293F cells, purified with protein A column

Columns and labels:
[1] = biological target: T1, full-length PrPc displayed on 293T cells (293T-PrPc) (Homo sapiens (Human)., UniProt P04156)
PrPc-35aa = PrPc-35aa (Homo sapiens (Human).); assay: BLI; conditions: both partners purified
[2] = biological target: T1, full-length PrPc displayed on 293T …; assay: Western blotting; conditions: one partner purified

Row | Binder | binding result [1] | Kd (PrPc-35aa) | other results
1 | B1 | binds | – | –
2 | B2 | – | 0.314 nM | –
3 | B3 | – | – | Western blot signal on the 5 μg lysate, fold of that with 3F4 [2]: 3 fold; Western blot signal on the 5 μg lysate, fold of that with 8H4 [2]: 9 fold
4 | B4 | – | 0.281 nM | –
5 | B5 | binds | – | –
6 | B6 | – | 2.92 nM | –
